Assay results taken from patent publication US6403765B1, “Truncated Apaf-1 and methods of use thereof” (Thomas Jefferson University, priority 1998, dated 2002).
Where a chain is given by its changes, count along the chain named. In names and notes the source's numbering stands.

B1: Apaf-420: truncated Apaf-1, residues 1-420, minimal conserved sequence between Apaf-1 and CED-4 (protein, UniProt O14727 1-420, looked up, fragment)
chain: MDAKARNCLLQHREALEKDIKTSYIMDHMISDGFLTISEEEKVRNEPTQQQRAAMLIKMILKKDNDSYVSFYNALLHEGYKDLAALLHDGIPVVSSSSGKDSVSGITSYVRTVLCEGGVPQRPVVFVTRKKLVNAIQQKLSKLKGEPGWVTIHGMAGCGKSVLAAEAVRDHSLLEGCFPGGVHWVSVGKQDKSGLLMKLQNLCTRLDQDESFSQRLPLNIEEAKDRLRILMLRKHPRSLLILDDVWDSWVLKAFDSQCQILLTTRDKSVTDSVMGPKYVVPVESSLGKEKGLEILSLFVNMKKADLPEQAHSIIKECKGSPLVVSLIGALLRDFPNRWEYYLKQLQNKQFKRIRKSSSYDYEALDEAMSISVEMLREDIKDYYTDLSILQKDVKVPTKVLCILWDMETEEVEDILQEFVN
B2: Apaf-350: truncated Apaf-1, residues 1-350 (protein, UniProt O14727 1-350, looked up, fragment)
chain: MDAKARNCLLQHREALEKDIKTSYIMDHMISDGFLTISEEEKVRNEPTQQQRAAMLIKMILKKDNDSYVSFYNALLHEGYKDLAALLHDGIPVVSSSSGKDSVSGITSYVRTVLCEGGVPQRPVVFVTRKKLVNAIQQKLSKLKGEPGWVTIHGMAGCGKSVLAAEAVRDHSLLEGCFPGGVHWVSVGKQDKSGLLMKLQNLCTRLDQDESFSQRLPLNIEEAKDRLRILMLRKHPRSLLILDDVWDSWVLKAFDSQCQILLTTRDKSVTDSVMGPKYVVPVESSLGKEKGLEILSLFVNMKKADLPEQAHSIIKECKGSPLVVSLIGALLRDFPNRWEYYLKQLQNKQF
B3: procaspase-9: Flag-tagged procaspase-9 C287A co-transfected with T7-tagged Bcl-xL (protein, UniProt P55211 1-416, looked up, variant C287A)
pro-form: MDEADRRLLRRCRLRLVEELQVDQLWDALLSRELFRPHMIEDIQRAGSGSRRDQARQLIIDLETRGSQALPLFISCLEDTGQDMLASFLRTNRQAAKLSKPTLENLTPVVLRPEIRKPEVLRPETPRPVDIGSGGFGDVGALESLRGNADLAYILSMEPCGHCLIINNVNFCRESGLRTRTGSNIDCEKLRRRFSSLHFMVEVKGDLTAKKMVLALLELAQQDHGALDCCVVVILSHGCQASHLQFPGAVYGTDGCPVSVEKIVNIFNGTSCPSLGGKPKLFFIQAAGGEQKDHGFEVASTSPEDESPGSNPEPDATPFQEGLRTFDQLDAISSLPTPSDIFVSYSTFPGFVSWRDPKSGSWYVETLDDIFEQWAHSEDLQSLLLRVANAVSVKGIYKQMPGCFNFLRKKLFFKTS
modifications: pro-form Flag tag
notes: Flag-tagged procaspase-9 C287A co-transfected with T7-tagged Bcl-xL
B4: Apaf-WD: WD-40 repeat region of Apaf-1, residues 530-1194 (protein, UniProt O14727 530-1194, looked up, fragment)
chain: RHILDEKDCAVSENFQEFLSLNGHLLGRQPFPNIVQLGLCEPETSEVYQQAKLQAKQEVDNGMLYLEWINKKNITNLSRLVVRPHTDAVYHACFSEDGQRIASCGADKTLQVFKAETGEKLLEIKAHEDEVLCCAFSTDDRFIATCSVDKKVKIWNSMTGELVHTYDEHSEQVNCCHFTNSSHHLLLATGSSDCFLKLWDLNQKECRNTMFGHTNSVNHCRFSPDDKLLASCSADGTLKLWDATSANERKSINVKQFFLNLEDPQEDMEVIVKCCSWSADGARIMVAAKNKIFLFDIHTSGLLGEIHTGHHSTIQYCDFSPQNHLAVVALSQYCVELWNTDSRSKVADCRGHLSWVHGVMFSPDGSSFLTSSDDQTIRLWETKKVCKNSAVMLKQEVDVVFQENEVMVLAVDHIRRLQLINGRTGQIDYLTEAQVSCCCLSPHLQYIAFGDENGAIEILELVNNRIFQSRFQHKKTVWHIQFTADEKTLISSSDDAEIQVWNWQLDKCIFLRGHQETVKDFRLLKNSRLLSWSFDGTVKVWNIITGNKEKDFVCHQGTVLSCDISHDATKFSSTSADKTAKIWSFDLLLPLHELRGHNGCVRCSAFSVDSTLLATGDDNGEIRIWNVSNGELLHLCAPLSEEGAATHGGWVTDLCFSPDGKMLIS

Key:
procaspase-9 = target: T1, procaspase-9 (Homo sapiens, UniProt P55211); assay: In vitro caspase 9 activation assay: recombinant Apaf-1 variants incubated with in vitro translated procaspase-9; assay type: biochemical; conditions: bacterial lysates with truncated Apaf-1 variants, FIG. 2B
T1 construct: schematic representation of full length procaspase-9; made in house; host or cells: coupled in vitro transcription/translation in rabbit reticulocyte lysate (TNT Kit, Promega)
T1 sequence (P55211 1-416): B3 pro-form with A287C
Method: SDS sample buffer was then added to each sample, boiled and subjected to SDS-PAGE analysis followed by autoradiography. In FIG. 2A procaspase-9 was in vitro translated in the presence of ^35S-methionine. Following translation procaspase-9 was desalted by gel filtration through a biospin column (BioRad) to remove unincorporated methionine and free nucleotides. Desalted procaspase-9 was then incubated with 200 ng Ni^2+-affinity purified bacterially expressed recombinant Apaf-530 (WT or K149R mutant) in the presence or absence of cytochrome c or dATP or both for 2 h at 30° C. A mock sample containing Ni^2+-affinity purified material from bacteria transformed with an empty vector was used as a negative control. Following incubation the products were analyzed by SDS-PAGE and autoradiography. In FIG. 2B^35S-labeled procaspase-9 (as described above) was incubated with bacterial lysates containing truncated Apaf-1 variants as indicated and then analyzed as above (2B upper panel). The bacterial lysates were analyzed by SDS-PAGE and immunoblotted with an Apaf-1 antibody which recognizes the N-terminus of Apaf-1 (lanes 2-6) and an anti T7-tag antibody (lanes 7-8) to confirm expression and equivalent concentration of the different Apaf-1 variants (2B lowerpanel). The molecular mass markers are indicated to the right of the lower panel.
^35S-labeled caspases were obtained by in vitro translation in the presence of ^35S-methionine using a coupled transcription/translation system in rabbit reticulocyte lysate using TNT Kit (Promega) according to the manufacturer's recommendations.
To determine the role of the WD-40 repeat in the mechanism of Apaf-1-induced processing of procaspase-9, truncated Apaf-1 (Apaf-530) lacking its WD-40 repeats (FIG. 1) was expressed and purified. To reconstitute a recombinant caspase-9 activation system, the truncated Apaf-530 was incubated with in vitro translated recombinant procaspase-9 in the presence or absence of cytochrome c and dATP. […] It was previously shown that mutation of CED-4 K165R which is required for nucleotide binding destroys its activity (Chinnaiyan et al., Nature 388:728-729, 1997; Jarnes et al., Curr. Biol. 7:246-252, 1997; Seshagiri and Miller, Curr. Biol. 7:455-460, 1997). […] Therefore, either binding of Apaf-1 to cytochrome c and dATP or deletion of the repeats could induce a conformational change enabling Apaf-1 to bind and process procaspase-9.
In FIG. 3, ^35S-labeled WT or mutant D330A, D315A or C287A mutants of procaspase-9 or prodomainless procaspase-9 (Δpro, residues 134-416) were incubated with buffer (lanes 1, 4, 7, 10, 13), purified Apaf-530 (lanes 2, 5, 8, 11, 14) or mock purified material (lanes, 3, 6, 9, 12, 15) and then analyzed by SDS-PAGE and autoradiography.

T7-tagged Bcl-xL = target: T2, T7-tagged Bcl-xL (Homo sapiens, UniProt Q07817); assay: Co-immunoprecipitation of Flag-tagged Apaf-1 variants or procaspase-9 with T7-tagged Bcl-xL in 293 cells; assay type: binding; conditions: anti-Flag immunoprecipitation, anti-T7 blot, 36 hours, FIG. 16
T2 construct: expressed in transfected cells; host or cells: 293 cells
Method: In vivo interaction experiments between Apaf-1 variants and Bcl-xL were performed. To analyze the ability of Apaf-1 to interact with Bcl-xL, 293 cells were co-transfected with constructs encoding T7-tagged Bcl-xL and constructs encoding Flag-tagged Apaf-97 (FIG. 16, lane 1), Apaf-1 (FIG. 16, lane 2), Apaf-530 (FIG. 16, lane 3) Apaf-530ΔCARD (FIG. 16, lane 4), or procaspase-9 C287A (FIG. 16, lane 5). After 36 hours, extracts were prepared and immunoprecipitated with a monoclonal antibody to the Flag epitope. The immunoprecipitates (FIG. 16, upper panel) were analyzed by SDS-PAGE and immunoblotted with a horseradish peroxidase-conjugated T7 antibody. The corresponding cellular extracts were also analyzed by SDS-PAGE and immunoblotted with a horseradish peroxides-conjugated T7 antibody (FIG. 16, middle panel) or an anti-Flag antibody (FIG. 16, lower panel).

T2 sequence (Q07817 whole entry): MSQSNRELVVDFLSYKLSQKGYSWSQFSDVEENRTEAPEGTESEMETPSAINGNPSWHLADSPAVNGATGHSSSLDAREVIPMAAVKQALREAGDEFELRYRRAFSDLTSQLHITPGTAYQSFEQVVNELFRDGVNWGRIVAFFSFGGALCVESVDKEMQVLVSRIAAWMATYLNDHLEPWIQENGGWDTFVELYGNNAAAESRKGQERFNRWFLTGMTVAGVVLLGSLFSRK

| Molecule | activity of the Apaf-1 variant in promoting activation of procaspase-9 (procaspase-9) | further results |
| --- | --- | --- |
| B1 |  | less activity than Apaf-530 in promoting procaspase-9 processing (procaspase-9): ~90% |
| B2 | further reduced its activity |  |
| B3 |  | co-immunoprecipitation with Bcl-xL (T7-tagged Bcl-xL): capable of immunoprecipitating |
| B4 | inactive |  |
